T1: His6-CaWRKY40 (Cicer arietinum, UniProt A0A1S2YMJ3 1-315)
T1 sequence: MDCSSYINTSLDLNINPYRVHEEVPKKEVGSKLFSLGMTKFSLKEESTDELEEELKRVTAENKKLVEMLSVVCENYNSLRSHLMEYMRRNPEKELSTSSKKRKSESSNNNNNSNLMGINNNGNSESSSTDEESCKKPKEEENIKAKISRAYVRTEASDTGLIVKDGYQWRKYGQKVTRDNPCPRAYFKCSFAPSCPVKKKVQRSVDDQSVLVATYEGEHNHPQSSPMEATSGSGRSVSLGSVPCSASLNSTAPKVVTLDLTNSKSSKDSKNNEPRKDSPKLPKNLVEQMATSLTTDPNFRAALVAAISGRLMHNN


Tests used:
[1] = biological target: T1, His6-CaWRKY40; test: EMSA; 200 ng protein; competed by 50 molar excess cold probe; 20 mM HEPES pH 7.5, 100 mM KCl, 0.2 mM EDTA, 1 mM DTT, 2 mM MgCl2, 1 ug poly dI-dC; 10 ng probe, 100-200 ng protein; 30 min room temperature; 5% PAGE 0.5x TBE at 4 C; conditions: protein: recombinant; tags: 6xHis (pET28a); label: labelled (32P)
[2] = biological target: T1, His6-CaWRKY40; test: EMSA; 200 ng protein; competed by 20 molar excess cold probe; 20 mM HEPES pH 7.5, 100 mM KCl, 0.2 mM EDTA, 1 mM DTT, 2 mM MgCl2, 1 ug poly dI-dC; 10 ng probe, 100-200 ng protein; 30 min room temperature; 5% PAGE 0.5x TBE at 4 C; conditions: protein: recombinant; tags: 6xHis (pET28a); label: labelled (32P)

Binder	binding result [1]	binding result [2]
pCaMPK9 W-box 2 (dsDNA) DNA 1: TTAAAATTATTTGTCATCTAAAAGAATCA DNA 2: TGATTCTTTTAGATGACAAATAATTTTAA	binds	
pCaMPK9 W-box 1 (dsDNA) DNA 1: ATTGGTTCAGTTTTGTAGTCAACAAAATCT DNA 2: AGATTTTGTTGACTACAAAACTGAACCAAT		binds
